Laboratory results as given in patent US20100081620A1.

T1: ADAM 8 catalytic domain (mouse) (mouse) (UniProt Q05910)
T1 sequence (looked up): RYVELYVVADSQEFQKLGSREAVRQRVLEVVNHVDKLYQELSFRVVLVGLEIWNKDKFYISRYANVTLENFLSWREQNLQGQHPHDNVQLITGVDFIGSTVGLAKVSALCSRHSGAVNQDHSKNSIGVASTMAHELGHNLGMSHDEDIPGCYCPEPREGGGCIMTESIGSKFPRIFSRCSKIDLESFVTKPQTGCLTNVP


What was measured:
[1] = molecular target: MMP 2; test: enzyme inhibition, fluorescent peptide substrate
[2] = molecular target: MMP 14; test: enzyme inhibition, fluorescent peptide substrate
[3] = molecular target: MMP 9; test: enzyme inhibition, fluorescent peptide substrate
[4] = molecular target: MMP 13; test: enzyme inhibition, fluorescent peptide substrate
[5] = molecular target: MMP 3; test: enzyme inhibition, fluorescent peptide substrate
[6] = molecular target: MMP 1; test: enzyme inhibition, fluorescent peptide substrate
[7] = molecular target: T1, ADAM 8 catalytic domain (mouse) (mouse); test: cell-based or functional assay
[8] = molecular target: Human ADAM10 protease containing the catalytic/disintegrin domains (human) (UniProt O14672); test: cell-based or functional assay
[9] = molecular target: Human TACE protease containing the catalytic/disintegrin domains (human) (UniProt P78536); test: cell-based or functional assay
[10] = molecular target: TACE catalytic domain (human) (human) (UniProt P78536); test: cell-based or functional assay
Sequence of TACE catalytic domain (human) (human) (P78536 215-477 limits assumed): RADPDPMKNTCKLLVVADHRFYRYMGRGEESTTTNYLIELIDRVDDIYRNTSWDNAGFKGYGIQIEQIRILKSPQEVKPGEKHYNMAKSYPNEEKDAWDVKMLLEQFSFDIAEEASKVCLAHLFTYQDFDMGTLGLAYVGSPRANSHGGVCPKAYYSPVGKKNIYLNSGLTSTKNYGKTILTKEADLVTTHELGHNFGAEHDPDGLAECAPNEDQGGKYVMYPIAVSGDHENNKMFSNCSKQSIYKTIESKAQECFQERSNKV

Sequence of Human ADAM10 protease containing the catalytic/disintegrin domains (human) (O14672 214-672 limits assumed): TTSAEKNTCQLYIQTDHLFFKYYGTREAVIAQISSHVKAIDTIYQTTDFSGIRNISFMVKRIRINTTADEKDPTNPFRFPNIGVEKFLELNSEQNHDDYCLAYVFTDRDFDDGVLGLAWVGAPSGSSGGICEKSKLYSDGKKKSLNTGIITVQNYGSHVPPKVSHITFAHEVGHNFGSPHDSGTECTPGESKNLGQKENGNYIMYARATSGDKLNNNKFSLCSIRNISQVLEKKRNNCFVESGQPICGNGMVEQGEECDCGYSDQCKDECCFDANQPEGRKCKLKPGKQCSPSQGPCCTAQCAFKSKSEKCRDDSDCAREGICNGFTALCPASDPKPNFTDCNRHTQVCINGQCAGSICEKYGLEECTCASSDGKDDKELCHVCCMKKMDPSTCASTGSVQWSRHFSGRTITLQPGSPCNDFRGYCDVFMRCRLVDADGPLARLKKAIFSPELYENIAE
Sequence of MMP 3 (P08254 100-477): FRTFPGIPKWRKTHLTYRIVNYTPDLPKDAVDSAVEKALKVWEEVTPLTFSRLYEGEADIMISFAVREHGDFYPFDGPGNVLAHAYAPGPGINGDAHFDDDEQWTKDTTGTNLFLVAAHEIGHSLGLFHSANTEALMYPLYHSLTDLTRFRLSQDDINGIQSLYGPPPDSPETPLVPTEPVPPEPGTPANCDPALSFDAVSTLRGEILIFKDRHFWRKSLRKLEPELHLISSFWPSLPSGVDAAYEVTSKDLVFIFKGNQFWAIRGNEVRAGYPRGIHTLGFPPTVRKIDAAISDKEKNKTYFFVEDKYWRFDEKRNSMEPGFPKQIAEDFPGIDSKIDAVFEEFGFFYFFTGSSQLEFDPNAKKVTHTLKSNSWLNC
Sequence of MMP 2 (P08253 110-660): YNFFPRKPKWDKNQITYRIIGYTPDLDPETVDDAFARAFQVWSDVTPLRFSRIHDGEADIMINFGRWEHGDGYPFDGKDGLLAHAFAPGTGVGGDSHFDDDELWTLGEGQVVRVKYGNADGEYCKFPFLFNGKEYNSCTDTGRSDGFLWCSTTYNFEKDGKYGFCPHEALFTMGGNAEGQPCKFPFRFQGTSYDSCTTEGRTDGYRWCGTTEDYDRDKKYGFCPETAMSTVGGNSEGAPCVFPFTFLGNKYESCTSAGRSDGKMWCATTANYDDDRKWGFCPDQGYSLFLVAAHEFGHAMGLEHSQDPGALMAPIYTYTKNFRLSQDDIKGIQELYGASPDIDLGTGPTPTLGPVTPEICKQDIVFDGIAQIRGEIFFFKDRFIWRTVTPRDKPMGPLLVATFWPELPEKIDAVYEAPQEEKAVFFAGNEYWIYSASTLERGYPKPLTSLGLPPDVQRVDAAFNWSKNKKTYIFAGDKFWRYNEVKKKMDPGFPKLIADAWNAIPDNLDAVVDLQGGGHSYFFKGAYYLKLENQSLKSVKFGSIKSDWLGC
Sequence of Human TACE protease containing the catalytic/disintegrin domains (human) (P78536 215-671 limits assumed): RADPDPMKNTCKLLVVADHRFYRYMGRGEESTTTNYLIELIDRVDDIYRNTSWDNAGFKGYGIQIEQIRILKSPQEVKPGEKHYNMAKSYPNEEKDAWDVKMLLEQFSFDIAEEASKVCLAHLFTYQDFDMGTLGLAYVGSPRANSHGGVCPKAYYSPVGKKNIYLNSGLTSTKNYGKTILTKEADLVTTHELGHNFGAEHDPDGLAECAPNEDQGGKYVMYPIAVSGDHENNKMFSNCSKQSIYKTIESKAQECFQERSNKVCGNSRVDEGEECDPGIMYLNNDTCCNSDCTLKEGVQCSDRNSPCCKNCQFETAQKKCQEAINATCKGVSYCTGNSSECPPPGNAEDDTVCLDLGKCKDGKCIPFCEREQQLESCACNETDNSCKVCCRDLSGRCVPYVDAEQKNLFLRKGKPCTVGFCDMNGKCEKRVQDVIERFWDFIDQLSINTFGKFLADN
Sequence of MMP 1 (P03956 100-469): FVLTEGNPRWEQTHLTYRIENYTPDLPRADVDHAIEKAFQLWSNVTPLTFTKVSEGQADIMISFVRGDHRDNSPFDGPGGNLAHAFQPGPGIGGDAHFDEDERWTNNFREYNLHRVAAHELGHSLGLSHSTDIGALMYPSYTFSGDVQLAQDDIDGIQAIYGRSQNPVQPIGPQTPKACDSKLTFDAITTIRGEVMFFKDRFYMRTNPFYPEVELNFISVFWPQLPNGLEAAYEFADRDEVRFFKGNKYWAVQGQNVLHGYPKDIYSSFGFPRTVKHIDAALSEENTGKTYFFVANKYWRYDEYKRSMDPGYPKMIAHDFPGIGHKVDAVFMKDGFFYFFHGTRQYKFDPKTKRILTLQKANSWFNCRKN
Sequence of MMP 9 (P14780 107-707): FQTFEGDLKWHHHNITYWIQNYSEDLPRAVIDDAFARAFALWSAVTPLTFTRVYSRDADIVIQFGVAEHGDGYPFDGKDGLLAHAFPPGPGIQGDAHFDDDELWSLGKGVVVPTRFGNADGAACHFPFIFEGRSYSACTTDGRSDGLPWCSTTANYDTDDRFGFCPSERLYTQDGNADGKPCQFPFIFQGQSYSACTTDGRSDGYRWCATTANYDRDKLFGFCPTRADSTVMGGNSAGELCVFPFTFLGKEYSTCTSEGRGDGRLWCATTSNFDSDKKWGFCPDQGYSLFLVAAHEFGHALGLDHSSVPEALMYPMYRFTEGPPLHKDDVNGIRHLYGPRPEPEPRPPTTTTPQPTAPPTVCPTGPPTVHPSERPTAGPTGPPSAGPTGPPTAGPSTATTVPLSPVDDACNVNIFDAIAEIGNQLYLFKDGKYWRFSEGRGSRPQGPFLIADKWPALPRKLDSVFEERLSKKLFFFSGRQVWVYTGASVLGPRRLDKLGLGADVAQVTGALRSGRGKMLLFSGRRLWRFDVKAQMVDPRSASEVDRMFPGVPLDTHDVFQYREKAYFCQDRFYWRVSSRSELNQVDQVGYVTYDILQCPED

Ki [1]	Ki [2]	Ki [3]	Ki [4]	Ki [5]	Ki [6]	prodomain inhibition of enzyme activity (percent) [7]	prodomain inhibition of enzyme activity (percent) [8]	prodomain inhibition of enzyme activity (percent) [9]	prodomain inhibition of enzyme activity (percent) [10]	Binder
> 2 µM	> 2 µM	> 2 µM	> 2 µM	> 2 µM	> 2 µM	–	–	–	–	wt ProADAM 10 23-213 (C-terminal His tag) (protein) NPLNKYIRHYEGLSYNVDSLHQKHQRAKRAVSHEDQFLLLDFHAHGRQFNLRMKRDTSLFSDEFKVETSNKVPDYDTSHIYTGHIYGEEGSFSHGSVIDGRFEGFIKTRGGTFYIEPAERYIKDRILPFHSVIYHEDDINYPHKYGPQGGCADHSVFERMRKYQMTGVEEGARAHPEKHAASSGPELLRKKHHHHHH
–	–	–	–	–	–	9%	25%	13%	50%	Pro ADAM 8 (mouse) (protein, UniProt Q05910 18-186, looked up, not shown: small tags and cut ends) GPPLPHVKQYEVVWPRRLAASRSRRALPSHWGQYPESLSYALGTSGHVFTLHLRKNRDLLGSSYTETYSAANGSEVTEQLQEQDHCLYQGHVEGYEGSAASISTCAGLRGFFRVGSTVHLIEPLDADEEGQHAMYQAKHLQQKAGTCGVKDTNLNDLGPRALEIYRAQP
–	–	–	–	–	–	17%	11%	–	37%	Pro ADAM 17 (mouse) (protein, UniProt Q9Z0F8 18-214, looked up, not shown: small tags and cut ends) PRPPEEAGSGSHPRLEKLDSLLSDYDILSLANIQQHSIRKRDLQSATHLETLLTFSALKRHFKLYLTSSTERFSQNLRVVVVDGKEESEYSVKWQNFFSGHVVGEPDSRVLAHIGDDDVTVRINTDGAEYNVEPLWRFVNDTKDKRMLVYKSEDIKDFSRLQSPKVCGYLNADSEELLPKGLIDREPSEEFVRRVKR
